Source: the domain aggregation screens of Martell et al. (2025)

Assay: soluble fraction after stress (log2 fold change); higher = more stays soluble; pooled small domains, quantitative proteomics
Settings: stress: 75 degC
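Also: 20 min heating vs room temperature control held 20 min.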

Question: With “HMKKERITWDERLERFAKYITENESLPYPSSKEHAWFEENKALYDAGELESVRAQSFSFLLKILRRMNLI” as the sequence, how does the “soluble fraction (log2)” value read?
Answer: -0.787

Question: Which “soluble fraction (log2)” value does the source give for “HMKKGATVSGVIVEKTKKSLIIDLGAKTEGVVADKEFEFAIDFVKELKKGDEVKAIVISTDNDKGQVVLSL” here?
Answer: -0.414

Question: With “HMKKHALFTLFKHHNANGTTVWYARFWDDATQRYAIARSTGVLAQGKRERHDEAITVAREMASSIQFS” as the sequence, how does the “soluble fraction (log2)” value read?
Answer: -2.81

Question: Which “soluble fraction (log2)” value does the source give for “HMKKHAPSLMRQIRRELKEGKSPESLLSKAKLISDSYYRSLSFYLLIPYLSPNSKQFQEAISLAGKDID” here?
Answer: 0.175

Question: With “HMKKKSYIVSFATDEDAQRFAREGFEVISLSGRQITVSLKGEMMPLVKALGSYQVVGLETVA” as the sequence, how does the “soluble fraction (log2)” value read?
Answer: -1.77

Question: For “HMKKLPDDANDIIERVSSRLAQKFRFGYHTIDDMKQQAALFAWEGIYDSWDDSRPLENFLWIHVRNRLYN”, which “soluble fraction (log2)” value is on record?
Answer: -0.111

Question: Which “soluble fraction (log2)” value does the source give for “HMKKLTGVQKAAILMIALGPDISSSIIKRLPENMVERITYEIANMTKITAQQRNDILKEFMDMTVAQ” here?
Answer: -3.64

Question: For “HMKKNTEALDYYKKAGANFPEDEVISSEYLFRAAQLQEVLGKTDEAVAIYKDIKAKYPTTEIGLNVDKFIL”, which “soluble fraction (log2)” value is on record?
Answer: 0.0379

Question: Which “soluble fraction (log2)” value does the source give for “HMKKQLKSEAVADELRRKILSGGFPDKRLPRKDELTEYFQVSQKTVEAALKMLTAEGLIRGVKGTGIFVNG” here?
Answer: -0.703

Question: For “HMKKQLTISDGDWAGKVSSMLEDMGVINSASEFDKYLSDNGYSNVIKSGTYDVSPEDTFQELAEKIT”, which “soluble fraction (log2)” value is on record?
Answer: 0.952

Question: Which “soluble fraction (log2)” value does the source give for “HMKKRDAEIMLQREFKLTEAIAMVRDRDIQELLPIALYFKVNINQPTAEIRYNLLNIAKSKTQEFIEAFD” here?
Answer: -2.14

Question: Which “soluble fraction (log2)” value does the source give for “HMKKRDANSQGTRLILFYMLQRLHTEYKLQGFVTYNQRRSFREIYDAYHALGGNGFGTAMWEEVKELDLK” here?
Answer: -2.18

Question: Which “soluble fraction (log2)” value does the source give for “HMKKTAAKVLGESEGKPVTVQSGRYGPYVQLGSIRATLPKDLEQDDVTLDRALELISAKAERAGK” here?
Answer: -0.0332

Question: Which “soluble fraction (log2)” value does the source give for “HMKKTDFNVENYDIEELAAILNFKYVPLNQGLIRDRIKDMKQRFKNKPEYIKFFTDVEIKLVNNLNLFN” here?
Answer: -1.67

Question: For “HMKKTFSKSSVMEAIFRDIPNITIPNAHEVYTLIKNISVMNKRKSITSEDIEKAYDALGLTP”, which “soluble fraction (log2)” value is on record?
Answer: -0.928

Question: For “HMKKTPLSELTNRAVELFIETVFMERNYSVSSQRQFISALKIFTVFYPQTKIHNLSLERLQSSFDKLLN”, which “soluble fraction (log2)” value is on record?
Answer: -1.25

Question: Which “soluble fraction (log2)” value does the source give for “HMKKTTEFAVTPEFQQRLEASPELKAAFQALTPGRQRAHLLFFAAPKQAQTRQARIEKSLPQIMAGKGLN” here?
Answer: -0.2

Question: Which “soluble fraction (log2)” value does the source give for “HMKKTVTDSVELLTFLKDIFTNTSTNKLRKMLTTGRVTVNNIVIHKAKHILVQNDVVEIGDK” here?
Answer: -3.37

Question: For “HMKKVIEFKDVSFAFEKKPILQDFNLLVQNKDRIGIVGDNGVGKSTLLNLIAERLQPQSGQVII”, which “soluble fraction (log2)” value is on record?
Answer: 0.111

Question: With “HMKKVSVKPILELRAAGISMRKIETLMHVSRHTISAIYKAADAYSISWDNVKDFDEDKIYEMLFPPTP” as the sequence, how does the “soluble fraction (log2)” value read?
Answer: -4.13

Question: Which “soluble fraction (log2)” value does the source give for “HMKKYEIIFNDLKQSIVNGKYSNEERLPPEETLAKKYQTSRVPVQQALNALVGIGMVKRIAGSGTYVTY” here?
Answer: -0.394

Question: Which “soluble fraction (log2)” value does the source give for “HMKKYFPPKSRFNPNKYLLKDWMALGLSEKQSQSILNFIQRGIYSNSALEKIYVMPEEVFTLIKDSTYYEE” here?
Answer: -1.38

Question: For “HMKKYIEIYNYYKQLIESEQLKSGDKMPSVRKATKIFNVSKTTVQNAYFDLQADGYIIAAPKSGYYVTEM”, which “soluble fraction (log2)” value is on record?
Answer: -1.07

Question: For “HMKKYLNIYNIIVNKIESKEYQSNDKLPSEKELMDQYNVSRDTVRKSLNMLEQNGYIQKTKGKGSFVLDIN”, which “soluble fraction (log2)” value is on record?
Answer: -0.865

Question: With “HMKLEEITIIVPSLRLDNFVSDLARTSRSKAVQIIDSERVFINGQNETKASKQVKLGDVITSA” as the sequence, how does the “soluble fraction (log2)” value read?
Answer: -0.211

Question: For “HMKLHPRDQERTRAISARGERLYAVTVGDLRRRIGEMLEWFGRQIESQEPMRVAKAARRITDFFDQVEAFT”, which “soluble fraction (log2)” value is on record?
Answer: -2.5

Question: For “HMKLIRLGKAAGELNVGMSTLAEFLQSKGHSVDPNPNTKLTPEQYALLRMEFAADQTLKKLTKQP”, which “soluble fraction (log2)” value is on record?
Answer: 0.452

Question: Which “soluble fraction (log2)” value does the source give for “HMKLKHANGNHPLTQQEKQNMIEEAAKHYGDYMTALGFDWKQDPNSSDTPMRVAKAFVNDLAEGVY” here?
Answer: 0.0234

Question: With “HMKLLLSANISKLRKKYSMTQEQLAEALGVTFASVSKWERGVATPELKLIAEMADMFEVSIDALIGYEFRN” as the sequence, how does the “soluble fraction (log2)” value read?
Answer: -1.87

Question: Which “soluble fraction (log2)” value does the source give for “HMKLPIEKESYRIIWDLEEESFRIRLKISENSPQEEKNILINQAIEDIENITGEPIDKSPYYVLYE” here?
Answer: -0.627

Question: For “HMKLPNSFGSIQKLSGNRRKPYRVVKTIGWDENGKQIRKTLGYYETRAKALQELALFNEKPYD”, which “soluble fraction (log2)” value is on record?
Answer: -1.72

Question: Which “soluble fraction (log2)” value does the source give for “HMKLTALWTANPKISAPIYSEPSTQSKTLGRIYQGASVKVYSFDPEWAYINSSGVVGYVLRRHLE” here?
Answer: -2.43

Question: Which “soluble fraction (log2)” value does the source give for “HMKLTINIDAAHDGKTIKQLFAEKGYSLELIKKFKYDGAIEVNGERKTVRWVLREGDLLVLEAN” here?
Answer: -2.42

Question: With “HMKLTNIQYETLKVVVESRAKIDEEEGITIKLEDIKKYIDQAISFTGLVGDDEDYKKLFADMEYRFKIQ” as the sequence, how does the “soluble fraction (log2)” value read?
Answer: -2.96

Question: Which “soluble fraction (log2)” value does the source give for “HMKLVAAGYHQNRLLVLLGIQAEELQAKRLLASFDRFRGREATPKPPIHDSARRWLRDTYHHVMNQVPVEL” here?
Answer: -1.59

Question: For “HMKMHKIIKERRLALNFTQEQVAKYLGVTTPAVNKWEKGISYPDISLLPALARLLDTDLNTLLSF”, which “soluble fraction (log2)” value is on record?
Answer: -4.38

Question: Which “soluble fraction (log2)” value does the source give for “HMKMLPAEVLTHPAVVALIERGAPTGSITPEEVRQASEDAAVEPRHLKALLAHLSALGISVQIP” here?
Answer: -0.303

Question: Which “soluble fraction (log2)” value does the source give for “HMKMLSIQRREAIRALLLEKESITIAEVMEKFQISVETARRDFDALADEGFLNKVYGGATLKK” here?
Answer: -1.68
